Assay results published in US20230355761A1 (CRISPR THERAPEUTICS, published 2023).

Target: T1, CD70 on human cancer cell lines (A498, ACHN, SK-OV-3, Hs 766T, NCI-H1975, Calu-1, DU 145, SNU-1, MM.1S, HuT78) (human, UniProt P32970 1-193)
T1 sequence (looked up): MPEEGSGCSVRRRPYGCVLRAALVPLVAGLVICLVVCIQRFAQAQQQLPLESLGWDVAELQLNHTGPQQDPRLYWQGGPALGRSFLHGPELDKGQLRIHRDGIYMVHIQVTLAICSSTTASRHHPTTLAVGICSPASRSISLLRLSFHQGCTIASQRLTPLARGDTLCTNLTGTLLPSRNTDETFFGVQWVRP
Assay: cell-based or functional assay

B1: anti-CD70 CAR (CD70B scFv with 41BB), as expressed on the surface of gene-edited human T cells (CTX130; TRAC-/β2M-/CD70-/anti-CD70 CAR+ T cells) (other)
chain: QVQLVQSGAEVKKPGASVKVSCKASGYTFTNYGMNWVRQAPGQGLKWMGWINTYTGEPTYADAFKGRVTMTRDTSISTAYMELSRLRSDDTAVYYCARDYGDYGMDYWGQGTTVTVSSGGGGSGGGGSGGGGSGDIVMTQSPDSLAVSLGERATINCRASKSVSTSGYSFMHWYQQKPGQPPKLLIYLASNLESGVPDRFSGSGSGTDFTLTISSLQAEDVAVYYCQHSREVPWTFGQGTKVEIKSAAAFVPVFLPAKPTTTPAPRPPTPAPTIASQPLSLRPEACRPAAGGAVHTRGLDFACDIYIWAPLAGTCGVLLLSLVITLYCNHRNRKRGRKKLLYIFKQPFMRPVQTTQEEDGCSCRFPEEEEGGCELRVKFSRSADAPAYQQGQNQLYNELNLGRREEYDVLDKRRGRDPEMGGKPRRKNPQEGLYNELQKDKMAEAYSEIGMKGERRRGKGHDGLYQGLSTATKDTYDALHMQALPPR
- cell kill of A498, ACHN, SK-OV-3 and Hs-766T cells by 3X KO CD70 CAR+ T cells, flow cytometry, 24 h, 1:1 effector:target cell ratio: > 50%
- cell kill of A498, ACHN, SK-OV-3 and Hs-766T cells by 3X KO CD70 CAR+ T cells, flow cytometry, 24 h, 4:1 effector:target cell ratio: > 60%
- cell kill of NCI-H1975, Calu-1 and DU 145 cells (medium to low CD70 expression) by 3X KO CD70 CAR+ T cells, flow cytometry, 24 h, 4:1 effector:target cell ratio: > 30%
- cell kill of SKOV-3, Hs-766T and NCI-H1975 cells by 3X KO CD70 CAR+ T cells, flow cytometry, 96 h, 1:1 effector:target cell ratio: > 80%
- cell lysis of CD70+ A498 cells by TRAC-/β2M-/CD70-/anti-CD70 CAR+ T cells, Cell titer-Glo, 24 h, T cell:A498 ratios 1:1 and 0.5:1: > 90%
- cell lysis of CD70+ A498 cells by TRAC-/β2M-/anti-CD70 CAR+ T cells (2X KO), Cell titer-Glo, 24 h, T cell:A498 ratios 1:1 and 0.5:1: < 90%
